This note sets out measurements from US20060084789A1, “Immunotherapeutic and immunoprphylactic reagents” (priority 2002, published 2006).

The test system of assay [1] is RGP-specific TCL. Description: TCL proliferation assay (3H-thymidine incorporation, stimulation index). Format: cell-based, human. As to conditions: for Proliferative response, stimulation index: peptides 10 μg/ml; for TCL that responded, response to allergen or peptide: allergen responsiveness considered as response to allergen or peptide; for TCL tested that responded to purified allergen: ten of fourteen TCL (Lol p 1), nine of fifteen TCL (Lol p 5), positive if SI ≥2.5. As to the method: Generation of Short-Term RGP-Specific TCL
PBMC were cultured in 24-well plates (Costar, Mass., USA) at 2.5×10^6 cells/well with RGP extract at a concentration of 25 or 50 μg/ml in RPMI 1640 medium (Gibco BRL, NY, USA) supplemented with 2 mM GlutaMAX I (Gibco BRL), 0.05 mg/ml gentamicin (David Bull Laboratories, Mulgrave, Victoria, Australia) and 5% heat-inactivated hunan AB^+ serum (Sigma, Mo., USA) for 7 days at 37° C. in a 5% CO2 humidified incubator. At day 7, cells were washed once and restimulated in 24-well plates at 5×10^5 cells/well width 25 or 50 μg/ml of RGP extract in the presence of 5×10^5 cells/well irradiated (3000 rads) autologous PBMC as a source of antigen presenting cells (APC). At day 2 following restimulation, 10 U/ml of Lymphocult T-LF (LC; Biotest, Germany) was added as a source of IL-2 and at day 4, 1 ml of culture medium was removed and replaced with fresh medium and 10 U/ml of LC. […] In all experiments T cells were rested for 6 to 7 days after the last addition of antigen and APC before testing.
T cells (5×10^4/well) were cultured in 96-well U bottom plates with either RGP extract at concentrations ranging from 25 to 200 μg/ml, purified Lol p 1 (0.12 to 2 μg/ml) or Lol p 5 (0.1 to 10 μg/ml), or Lol p 1 or Lol p 5 peptides (10 μg/ml), or medium alone (to determine background levels of proliferation), in the presence of washed autologous irradiated (3000 rads) PBMC (5×10^4/well). […] Cultures were incubated for 3 days, pulsed for the last 16 hours with ^3H-thymidine (1 μCi/well) and harvested onto glass fibre filters. ^3H-thymidine incorporation was measured by liquid scintillation spectroscopy and the mean counts per minute (cpm) for triplicate cultures was determined. Responses were considered positive if the stimulation index (SI, cpm of antigen-stimulated T cells divided by cpm of unstimulated T cells) was ≧2.5. Where several concentrations of allergen were tested (i.e., RGP, Lol p 1 and Lol p 5), values corresponding to the highest proliferation are shown.
In general terms: Uptake of a labelled nucleoside into DNA is a usual measure of proliferation.

Assay [2] concerns oligoclonal house dust mite (HDM)- or low ammoniated latex (LAL)-reactive CD44^+ T cells. The assay is described as follows: Mitogenicity check with irrelevant-antigen T cells and irradiated autologous PBMC. Format: cell-based. As to conditions: culture with HDM- or LAL-reactive T cells and irradiated autologous PBMC; data not shown. The source says:
Mitogenicity of RGP, Lol p 1, Lol p 5 and peptides was excluded by culturing with oligoclonal house dust mite (HDM)- or low ammoniated latex (LAL)-reactive CD44^+ T cells in the presence of irradiated autologous PBMC, and toxicity was excluded by co-culture of antigens with HDM- or LAL-reactive T cells in the presence of IL-2 (data not shown).

B1: Lol p 1: Rye grass pollen allergen purified from crude RGP extracts by SDS-PAGE (protein)
chain: IAKVPPGPNITAEYGDKWLDAKSTWYGKPTGAGPKDNCGACGYKDVDKAPFNGMTGCGNTPIFKDGRGCGSCFEIKCTKPESCSGEAVTVTITDDNEEPIAPYHFDLSGHAFGSMAKKGEEQKLRASAGELELQFRRVKCKYPDGTKPTFHVEKASNPNYLAILVKYVDGDGDVVAVDIKEKGKDKWIELKESWGAVWRIDTPDKLTGPFTVRYTTEGGTKSEVEDVIPEGWKADTSYSAK
modifications: Lolium perenne
notes: Rye grass pollen allergen purified from crude RGP extracts by SDS-PAGE
With B1, the “Proliferative response, stimulation index” value in assay [1] (Subject 1 TCL, Lol p 1 series (Table 3), RGP and Lol p 1 maximal response) is recorded as 5.9; in assay [1] (Subject 2 TCL, Lol p 1 series (Table 3), RGP and Lol p 1 maximal response) it was 3.0; in assay [1] (Subject 4 TCL, Lol p 1 series (Table 3), RGP and Lol p 1 maximal response), 2.9; in assay [1] (Subject 5 TCL, Lol p 1 series (Table 3), RGP and Lol p 1 maximal response) it was 2.5; in assay [1] (Subject 6 TCL, Lol p 1 series (Table 3), RGP and Lol p 1 maximal response) it was 4.0; in assay [1] (Subject 8 TCL, Lol p 5 series (Table 4), RGP and Lol p 5 maximal response) it was 4.3. The “Proliferative response, stimulation index” value in assay [1] (Subject 11 TCL, Lol p 5 series (Table 4), RGP and Lol p 5 maximal response) was 3.4; in assay [1] (Subject 15 TCL, Lol p 1 series (Table 3), RGP and Lol p 1 maximal response) it was 0.3; in assay [1] (Subject 19 TCL, Lol p 1 series (Table 3), RGP and Lol p 1 maximal response), 10.5; in assay [1] (Subject 27 TCL, Lol p 5 series (Table 4), RGP and Lol p 5 maximal response, † affinity purified Lol p 5) it was 3.8†; in assay [1] (Subject 38 TCL, Lol p 5 series (Table 4), RGP and Lol p 5 maximal response, * SDS-PAGE purified Lol p 5), 3.2*. For the same molecule, in assay [1], the “TCL that responded, response to allergen or peptide” value amounted to 79%. The “TCL tested that responded to purified allergen” value in assay [1] is 71%. The Mitogenicity result in assay [2] is listed as “excluded”.

B2: Lol p 5: Rye grass pollen allergen purified from RGP extract by SDS-PAGE or affinity chromatography (mAb FMC A7) (protein)
chain: ADAGYTPAAAATPATPAATPAAAGGKATTDEQKLLEDVNAGFKAAVAAAANAPPADKFKIFEAAFSESSKGLLATSAAKAPGLIPKLDTAYDVAYKAAEGATPEAKYDAFVTALTEALRVIAGALEVHAVKPATEEVPAAKIPTGELQIVDKIDAAFKIAATAANAAPTNDKFTVFESAFNKALNECTGGAYETYKFIPSLEAAVKQAYAATVAAAPEVKYAVFEAALTKAITAMTQAQKAGKPAAAAATGAATVATGAATAAAGAATAAAGGYKA
With B2, in assay [1], the “TCL that responded, response to allergen or peptide” value worked out at 91% and the “TCL tested that responded to purified allergen” value turned out to be 60%. Besides, the Mitogenicity result in assay [2] is given as “excluded”.
